Assay results taken from patent US12228572B2, “Enhanced expression of polo-like kinase 3 (PLK3) in human immunodeficiency virus (HIV)-infected cells” (priority 2021, dated 2025).
“And” between values parts separate entries of the source, which are not always exact repeats. Equal values may be shown once.

Columns and labels:
[1] = test system: HIV-1; settings: overexpression of the PLK3 protein
[2] = test system: HIV-2ROD; test: Infectivity of supernatant from transfected 293T cells treated with pHIV-2ROD, on TZM-bl cells; format: cell-based; settings: 48 hours after transfection
[3] = test system: HIV-1; settings: overexpression of the PLK3 protein; remark: listed apart in the source
[4] = test system: HIV-1BaL; test: Infectivity of supernatant from transfected 293T cells treated with pBaL, on TZM-bl cells; format: cell-based; settings: 48 hours after transfection
[5] = test system: HIV-1; settings: overexpression of the PLK3 protein; remark: listed apart in the source
From the text: Specific test steps are as follows. All RNAs were extracted for qPCR to measure the Gag transcription level of HIV-1 (FIG. 4). Cells were collected for a flow cytometry test, and the expression level of an HIV-1 p24 protein was detected by using specific antibodies (FIG. 5).

[6] = test system: HIV-189.6; test: Infectivity of supernatant from transfected 293T cells treated with p89.6, on TZM-bl cells; format: cell-based; settings: 48 hours after transfection
[7] = test system: SIVagm; test: Infectivity of supernatant from transfected 293T cells treated with pSIVagm, on TZM-bl cells; format: cell-based; settings: 48 hours after transfection
[8] = test system: hepatitis B virus (HBV); test: HBs ELISA of HBV virus particles in supernatant of 293T cells treated with HBV replicator; format: cell-based; settings: overexpression in 293T cells, HBV driven by CMV promoter, 48 hours
[9] = test system: HIV-1
[10] = test system: HIV-1AD8; test: Infectivity of supernatant from transfected 293T cells treated with pAD8, on TZM-bl cells; format: cell-based; settings: 48 hours after transfection
[11] = test system: HIV-1; remark: listed apart in the source

B1: PLK3 protein: human PLK3 protein overexpressed from a 3× FLAG-labeled PLK3 protein expression vector (protein, UniProt Q9H4B4 1-646, looked up)
chain: MEPAAGFLSPRPFQRAAAAPAPPAGPGPPPSALRGPELEMLAGLPTSDPGRLITDPRSGRTYLKGRLLGKGGFARCYEATDTETGSAYAVKVIPQSRVAKPHQREKILNEIELHRDLQHRHIVRFSHHFEDADNIYIFLELCSRKSLAHIWKARHTLLEPEVRYYLRQILSGLKYLHQRGILHRDLKLGNFFITENMELKVGDFGLAARLEPPEQRKKTICGTPNYVAPEVLLRQGHGPEADVWSLGCVMYTLLCGSPPFETADLKETYRCIKQVHYTLPASLSLPARQLLAAILRASPRDRPSIDQILRHDFFTKGYTPDRLPISSCVTVPDLTPPNPARSLFAKVTKSLFGRKKKSKNHAQERDEVSGLVSGLMRTSVGHQDARPEAPAASGPAPVSLVETAPEDSSPRGTLASSGDGFEEGLTVATVVESALCALRNCIAFMPPAEQNPAPLAQPEPLVWVSKWVDYSNKFGFGYQLSSRRVAVLFNDGTHMALSANRKTVHYNPTSTKHFSFSVGAVPRALQPQLGILRYFASYMEQHLMKGGDLPSVEEVEVPAPPLLLQWVKTDQALLMLFSDGTVQVNFYGDHTKLILSGWEPLLVTFVARNRSACTYLASHLRQLGCSPDLRQRLRYALRLLRDRSPA
modifications: full-length 3xFLAG tag
notes: human PLK3 protein overexpressed from a 3× FLAG-labeled PLK3 protein expression vector
content of core antigen p24 of virus particles in cultured supernatant [1]: greatly decreased | ability to limit infection with HIV-2ROD [2]: has an ability to limit infection | content of genomic RNA of the virus particles in cultured supernatant [3]: greatly decreased | ability to limit infection with HIV-1BaL [4]: has an ability to limit infection | transcription level of virus Gag in cells [5]: not affected | virus Gag protein level [5]: obviously reduced | ability to limit infection with HIV-189.6 [6]: has an ability to limit infection | ability to limit infection with SIVagm [7]: has an ability to limit infection | replication and release of the HBV [8]: not affected | ability to block HIV-1 infection [9]: extremely strong ability to block HIV-1 infection | ability to limit infection with HIV-1AD8 [10]: has an ability to limit infection | HIV infectivity reduced to fraction of original level ([11]; 293T cells with vs without PLK3 protein expression, maximum reduction, 48 hours after transfection): about 1/150 | HIV-1 infectivity as fraction of that of the negative control group ([11]; different expression amounts, 293T cells, pNL4.3, 48 hours): 1/11 and 1/115
